Measurements reported in paper doi:10.1101/671792 (bioRxiv, 2019).

B1: Arabidopsis thaliana NBR1 PB1 domain, residues 1-95 (domain or fragment)
chain: MESTANALVVKVSYGGVLRRFRVPVKANGQLDLEMAGLKEKIAALFNLSADAELSLTYSDEDGDVVALVDDNDLFDVTNQRLKFLKINVNAGVST

Legend:
sedimentation = target: the molecule itself; assay: sedimentation
[1] = target: B1; assay: pull-down

| Binder | binding result (sedimentation) | binding result [1] |
| --- | --- | --- |
| TFG-1 (Trk-fused gene 1) PB1 domain, residues 1-95 (domain or fragment) MNGQLDLSGKLIIKAQLGEDIRRIPIHNEDITYDELVLMMQRVFRGKLLSNDEVTIKYKDEDGDLITIFDSSDLSFAIQCSRILKLTLFVNGQPR | binds | – |
| MBP-tagged wild-type AtNBR1-PB1 (domain or fragment) MESTANALVVKVSYGGVLRRFRVPVKANGQLDLEMAGLKEKIAALFNLSADAELSLTYSDEDGDVVALVDDNDLFDVTNQRLKFLKINVNAGVST | – | binds |
| B1 | binds | – |
| p62/SQSTM1 PB1 domain, residues 1-102 (domain or fragment) MASLTVKAYLLGKEDAAREIRRFSFCCSPEPEAEAEAAAGPGPCERLLSRVAALFPALRPGGFQAHYRDEDGDLVAFSSDEELTMAMSYVKDDIFRIYIKEK | binds | – |
